Measurements published in patent US20260209352A1 (Adimab, published 2026).
Residue numbers refer to the chain shown, from its start.

B1: ADI-45960 (antibody, V domains shown)
VH: QVQLVQSGAEVKKPGASVKVSCKASGFNIKDYYMHWVRQAPGQRLEWIGWIDLENANTVYDAKFQGRVTITRDTSASTAYMELSSLRSEDTAVYYCARDAYGRYFYDVWGQGTLVTVSS
VL: DIVMTQSPDSLAVSLGERATINCKSSQSLLNARTGKNYLAWYQQKPGQPPKLLIYWASTRESGVPDRFSGSGSGTDFTLTISSLQAEDAAVYYCAQSYFRRTFGGGTKVEIK
notes: also called Ab23
B2: ADI-45961 (antibody, V domains shown)
VH: B1 VH
VL: B1 VL with G35R, K36R, A57G, A89V, A95K
notes: also called Ab24
B3: ADI-45962 (antibody, V domains shown)
VH: B1 VH with K12E, K13E
VL: B1 VL with A89V, A95V
notes: also called Ab25
B4: ADI-45963 (antibody, V domains shown)
VH: B1 VH with S17P
VL: B1 VL with A89V, A95K
notes: also called Ab26
B5: ADI-45964 (antibody, V domains shown)
VH: B1 VH with M34I
VL: B1 VL with A89V
notes: also called Ab27
B6: ADI-45965 (antibody, V domains shown)
VH: B1 VH with T58A
VL: B1 VL with E17G, A89V, A95V
notes: also called Ab28
B7: ADI-45966 (antibody, V domains shown)
VH: B1 VH with T69A
VL: B1 VL with A89V, A95T
notes: also called Ab29
B8: ADI-45967 (antibody, V domains shown)
VH: B1 VH with T71A, A79V
VL: B1 VL with T20I, A89V, A95T
notes: also called Ab3
B9: ADI-45968 (antibody, V domains shown)
VH: B1 VH with T74A
VL: B1 VL with A89V, A95V
notes: also called Ab4
B10: ADI-45969 (antibody, V domains shown)
VH: B1 VH with S84G
VL: B1 VL with A89V
notes: also called Ab5
B11: ADI-45970 (antibody, V domains shown)
VH: B1 VH with I29V
VL: B1 VL with A89V, A95K
notes: also called Ab6
B12: ADI-45971 (antibody, V domains shown)
VH: B1 VH with S17T, M34I
VL: B1 VL with G35R, A89V, A95V
notes: also called Ab7
B13: ADI-45972 (antibody, V domains shown)
VH: B1 VH with K13R
VL: B1 VL with A89V, A95V
notes: also called Ab8
B14: ADI-45973 (antibody, V domains shown)
VH: B1 VH with G8E
VL: B1 VL with A89V, A95K
notes: also called Ab9
B15: ADI-45974 (antibody, V domains shown)
VH: B1 VH with S85N
VL: B1 VL with A89V, A95K
notes: also called Ab10
B16: ADI-45976 (antibody, V domains shown)
VH: B1 VH with A97V
VL: B1 VL with A89V, A95V
notes: also called Ab12
B17: ADI-46356 (antibody, V domains shown)
VH: B1 VH
VL: B1 VL with A89V, A95V
B18: ADI-46358 (antibody, V domains shown)
VH: B1 VH with S85N
VL: B1 VL with A89V, A95T
notes: also called Ab31
B19: ADI-46360 (antibody, V domains shown)
VH: B1 VH with L45P, T91A, V93A
VL: B1 VL with K51E, A89V, A95T
notes: also called Ab44
B20: ADI-46361 (antibody, V domains shown)
VH: B1 VH with I29N
VL: B1 VL with A89V, A95T
notes: also called Ab45
B21: ADI-46362 (antibody, V domains shown)
VH: B1 VH with L45P, V93A
VL: B1 VL with A89V, A95V
notes: also called Ab46
B22: ADI-46363 (antibody, V domains shown)
VH: B1 VH
VL: B1 VL with A89V, A95T
notes: also called Ab47
B23: ADI-46364 (antibody, V domains shown)
VH: B1 VH with F64L, R87G
VL: B1 VL with A89V, A95V
notes: also called Ab48
B24: ADI-46365 (antibody, V domains shown)
VH: B1 VH with S77G, Y80H, L114P
VL: B1 VL with A89V, A95T
notes: also called Ab49
B25: ADI-46367 (antibody, V domains shown)
VH: B1 VH with T78I
VL: B1 VL with A89V
notes: also called Ab32
B26: ADI-46369 (antibody, V domains shown)
VH: B1 VH with V2A, A62T
VL: B1 VL with A89V, A95V
notes: also called Ab33
B27: ADI-46370 (antibody, V domains shown)
VH: B1 VH with A62H
VL: B1 VL with A89V, A95V
notes: also called Ab34
B28: ADI-46371 (antibody, V domains shown)
VH: B1 VH with V2A, L45P, V93A
VL: B1 VL with A89V, A95V
notes: also called Ab35
B29: ADI-46372 (antibody, V domains shown)
VH: B1 VH with S77G, Y80H, L114P
VL: B1 VL with A89V, A95V
notes: also called Ab36
B30: ADI-46374 (antibody, V domains shown)
VH: B1 VH with E54N
VL: B1 VL with A89V, A95V
notes: also called Ab37
B31: ADI-46375 (antibody, V domains shown)
VH: B1 VH
VL: B1 VL with G35R, A89V, A95T
notes: also called Ab38
B32: ADI-46376 (antibody, V domains shown)
VH: B1 VH with F64L, R87G, L114P
VL: B1 VL with A89V, A95T
notes: also called Ab39
B33: ADI-46379 (antibody, V domains shown)
VH: B1 VH with T78A
VL: B1 VL with T59A, A89V, A95T
notes: also called Ab41
B34: ADI-46381 (antibody, V domains shown)
VH: B1 VH with A62T
VL: B1 VL with S25T, S28G, G35N, A89V, A95V
notes: also called Ab43

What follows are binders tested against Cyno CD3εδ-Fc (cynomolgus) (UniProt Q95LI8) (assay: KD of scFv-Fc or IgG on cyno CD3εδ-Fc; instrument not given).
Chain of Cyno CD3εδ-Fc (cynomolgus) (chain, as listed by the source mutant, chain 1 of 2): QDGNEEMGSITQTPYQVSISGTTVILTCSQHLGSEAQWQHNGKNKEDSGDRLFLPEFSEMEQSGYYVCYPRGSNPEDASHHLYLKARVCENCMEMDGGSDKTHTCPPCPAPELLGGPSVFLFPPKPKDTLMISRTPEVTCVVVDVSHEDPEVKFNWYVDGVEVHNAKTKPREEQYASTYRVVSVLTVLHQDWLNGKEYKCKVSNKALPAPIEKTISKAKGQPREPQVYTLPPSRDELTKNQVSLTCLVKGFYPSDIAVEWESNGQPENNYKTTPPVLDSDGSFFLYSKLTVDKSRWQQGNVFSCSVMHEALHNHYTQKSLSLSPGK
Chain of Cyno CD3εδ-Fc (cynomolgus) (Q95LI8 22-105, stated change not applied, chain 2 of 2): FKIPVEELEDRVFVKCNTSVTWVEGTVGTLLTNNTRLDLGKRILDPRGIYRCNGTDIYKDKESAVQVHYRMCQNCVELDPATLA

Going from B1 to B2, the Kd rises from 1800 pM to 3000 pM (1.7-fold). The first binds more tightly here.

Going from B3 to B4, the Kd rises from 1400 pM to 2100 pM (1.5-fold). The first binds more tightly here.

B5 and B6 are within 1.5-fold of each other in Kd: 2000 pM for the first, 1400 pM for the second.

B7 and B8 are within 1.5-fold of each other in Kd: 1200 pM for the first, 1400 pM for the second.

B9 and B10 are within 1.5-fold of each other in Kd: 1400 pM for the first, 1500 pM for the second.

B11 and B12 are within 1.5-fold of each other in Kd: 1600 pM for the first, 1900 pM for the second.

B13 and B14 are within 1.5-fold of each other in Kd: 1400 pM for the first, 1800 pM for the second.

B15 and B16 are within 1.5-fold of each other in Kd: 2100 pM for the first, 1800 pM for the second.

These binders were tested against Human CD3εδ-Fc (human) (UniProt P04234) (assay: KD of scFv-Fc or IgG on human CD3εδ-Fc; instrument not given).
Chain of Human CD3εδ-Fc (human) (chain, as listed by the source mutant, chain 1 of 2): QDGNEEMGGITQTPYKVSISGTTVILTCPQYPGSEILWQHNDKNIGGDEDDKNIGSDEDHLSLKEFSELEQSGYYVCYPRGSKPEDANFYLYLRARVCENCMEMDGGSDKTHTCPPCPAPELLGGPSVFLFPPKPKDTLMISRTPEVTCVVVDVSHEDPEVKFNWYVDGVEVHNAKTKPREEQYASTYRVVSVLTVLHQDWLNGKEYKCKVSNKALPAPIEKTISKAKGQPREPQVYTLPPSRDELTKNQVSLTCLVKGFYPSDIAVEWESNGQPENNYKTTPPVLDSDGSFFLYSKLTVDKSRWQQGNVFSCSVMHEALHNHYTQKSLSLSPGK
Chain of Human CD3εδ-Fc (human) (P04234 22-105, stated change not applied, chain 2 of 2): as the sequence (Q95LI8 22-105, stated change not applied, chain 2 of 2) above, with V5I, K15N, V20I, T32S, N33D, N34I, A64T, N74S, L83V counted along it

Compared with B17, B1 is 7-fold lower in Kd: 980 pM for the first, 140 pM for the second. The second binds more tightly here.

Going from B2 to B3, the Kd falls from 230 pM to 140 pM (1.6-fold). The second binds more tightly here.

B4 and B5 are within 1.5-fold of each other in Kd: 69 pM for the first, 97 pM for the second.

B6 and B7 are within 1.5-fold of each other in Kd: 65 pM for the first, 61 pM for the second.

B8 and B9 are within 1.5-fold of each other in Kd: 76 pM for the first, 68 pM for the second.

Going from B10 to B11, the Kd rises from 60 pM to 150 pM (2.5-fold). The first binds more tightly here.

B12 and B13 are within 1.5-fold of each other in Kd: 110 pM for the first, 81 pM for the second.

B14 and B15 are within 1.5-fold of each other in Kd: 160 pM for the first, 190 pM for the second.

Compared with B16, B18 is 8.2-fold higher in Kd: 120 pM for the first, 990 pM for the second. The first binds more tightly here.

B19 and B20 are within 1.5-fold of each other in Kd: 970 pM for the first, 930 pM for the second.

B21 and B22 are within 1.5-fold of each other in Kd: 800 pM for the first, 930 pM for the second.

B23 and B24 are within 1.5-fold of each other in Kd: 970 pM for the first, 1000 pM for the second.

B25 and B26 are within 1.5-fold of each other in Kd: 950 pM for the first, 920 pM for the second.

B27 and B28 are within 1.5-fold of each other in Kd: 1000 pM for the first, 860 pM for the second.

B29 and B30 are within 1.5-fold of each other in Kd: 1100 pM for the first, 840 pM for the second.

B31 and B32 are within 1.5-fold of each other in Kd: 860 pM for the first, 1000 pM for the second.

B33 and B34 are within 1.5-fold of each other in Kd: 1000 pM for the first, 720 pM for the second.

The binders below were run against T1, Cynomolgus CD3 on Cyno CD3+ Jurkat cells (cynomolgus, UniProt Q95LI5 22-198) (assay: cell binding cCD3, fold over background).
T1 construct: whole, on cells; CD3 on cells; also called cCD3
T1 sequence (Q95LI5 22-198): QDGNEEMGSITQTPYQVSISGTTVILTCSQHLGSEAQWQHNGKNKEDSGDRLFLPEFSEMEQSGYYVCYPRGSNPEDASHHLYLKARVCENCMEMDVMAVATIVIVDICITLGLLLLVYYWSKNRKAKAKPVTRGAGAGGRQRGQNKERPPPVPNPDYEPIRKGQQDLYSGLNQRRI

First: B17
Second: B1
The “Cell Binding cCD3 (FOB)” value of the first is higher: 59 FOB for the first, 58 FOB for the second.

Going from B2 to B3, the “Cell Binding cCD3 (FOB)” value rises from 30 FOB to 46 FOB.

Going from B4 to B5, the “Cell Binding cCD3 (FOB)” value falls from 69 FOB to 63 FOB.

Going from B6 to B7, the “Cell Binding cCD3 (FOB)” value falls from 124 FOB to 27 FOB.

Going from B8 to B9, the “Cell Binding cCD3 (FOB)” value falls from 59 FOB to 18 FOB.

First: B10
Second: B11
The “Cell Binding cCD3 (FOB)” value of the first is lower: 63 FOB for the first, 68 FOB for the second.

First: B12
Second: B13
The “Cell Binding cCD3 (FOB)” value of the first is lower: 20 FOB for the first, 45 FOB for the second.

Compared with B14, B15 is lower in “Cell Binding cCD3 (FOB)” value: 91 FOB for the first, 67 FOB for the second.

First: B16
Second: B18
The “Cell Binding cCD3 (FOB)” value of the first is higher: 109 FOB for the first, 82 FOB for the second.

Going from B19 to B20, the “Cell Binding cCD3 (FOB)” value falls from 106 FOB to 84 FOB.

Compared with B21, B22 is higher in “Cell Binding cCD3 (FOB)” value: 95 FOB for the first, 129 FOB for the second.

Compared with B23, B24 is higher in “Cell Binding cCD3 (FOB)” value: 63 FOB for the first, 84 FOB for the second.

Compared with B25, B26 is higher in “Cell Binding cCD3 (FOB)” value: 62 FOB for the first, 71 FOB for the second.

Going from B27 to B28, the “Cell Binding cCD3 (FOB)” value rises from 46 FOB to 121 FOB.

First: B29
Second: B30
The “Cell Binding cCD3 (FOB)” value of the first is higher: 80 FOB for the first, 29 FOB for the second.

Compared with B31, B32 is higher in “Cell Binding cCD3 (FOB)” value: 40 FOB for the first, 96 FOB for the second.

Going from B33 to B34, the “Cell Binding cCD3 (FOB)” value rises from 105 FOB to 174 FOB.

These binders were tested against T2, Human CD3 on Human CD3+ Jurkat cells (human, UniProt P07766 23-207) (assay: cell binding hCD3, fold over background).
T2 construct: whole, on cells; CD3 complex on cells; also called hCD3
T2 sequence (P07766 23-207): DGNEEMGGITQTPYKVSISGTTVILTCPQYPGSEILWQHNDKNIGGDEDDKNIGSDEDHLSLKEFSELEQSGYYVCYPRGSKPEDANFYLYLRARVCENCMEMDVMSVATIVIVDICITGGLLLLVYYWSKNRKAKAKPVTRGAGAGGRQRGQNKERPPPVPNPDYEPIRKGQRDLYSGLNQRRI

First: B17
Second: B1
The “Cell Binding hCD3 (FOB)” value of the first is lower: 39 FOB for the first, 63 FOB for the second.

B2 and B3 are the same in “Cell Binding hCD3 (FOB)” value: 18 FOB for the first, 18 FOB for the second.

Going from B4 to B5, the “Cell Binding hCD3 (FOB)” value rises from 14 FOB to 56 FOB.

Going from B6 to B7, the “Cell Binding hCD3 (FOB)” value falls from 33 FOB to 14 FOB.

Compared with B8, B9 is lower in “Cell Binding hCD3 (FOB)” value: 40 FOB for the first, 16 FOB for the second.

Compared with B10, B11 is higher in “Cell Binding hCD3 (FOB)” value: 28 FOB for the first, 53 FOB for the second.

First: B12
Second: B13
The “Cell Binding hCD3 (FOB)” value of the first is lower: 21 FOB for the first, 32 FOB for the second.

Compared with B14, B15 is lower in “Cell Binding hCD3 (FOB)” value: 55 FOB for the first, 47 FOB for the second.

First: B16
Second: B18
The “Cell Binding hCD3 (FOB)” value of the first is higher: 45 FOB for the first, 35 FOB for the second.

Compared with B19, B20 is lower in “Cell Binding hCD3 (FOB)” value: 40 FOB for the first, 23 FOB for the second.

First: B21
Second: B22
The “Cell Binding hCD3 (FOB)” value of the first is lower: 7 FOB for the first, 49 FOB for the second.

First: B23
Second: B24
The “Cell Binding hCD3 (FOB)” value of the first is lower: 33 FOB for the first, 36 FOB for the second.

Compared with B25, B26 is higher in “Cell Binding hCD3 (FOB)” value: 8 FOB for the first, 33 FOB for the second.

Compared with B27, B28 is higher in “Cell Binding hCD3 (FOB)” value: 40 FOB for the first, 47 FOB for the second.

Compared with B29, B30 is higher in “Cell Binding hCD3 (FOB)” value: 14 FOB for the first, 37 FOB for the second.

Going from B31 to B32, the “Cell Binding hCD3 (FOB)” value falls from 48 FOB to 4 FOB.

First: B33
Second: B34
The “Cell Binding hCD3 (FOB)” value of the first is lower: 43 FOB for the first, 71 FOB for the second.
